Experimental data published in the DeepSol protein solubility set.

test: soluble on expression in E. coli; label from the status in PepcDB or PDB records

Soluble on expression in E. coli, not soluble:
DITGIPTGFNELDKMTAGFQRNDLIIVAARPSVGKTAFALNIAQNVATKTDENVAIFSLEMGAEQLVMRMLCAEGNINAQNLRTGALTSDDWQKLTIAMGTLSNSGIYIDDTPGVRVNEIRSKCRRLKQETGLGMIVIDYLQLIAGSGRGGENRQQEVSEISRSLKALARELEVPVIALSQLSRSVEQRQDKRPMMSDI
MSEISIKRAHENEKDAEEDMEPATKKIKSDDVTEEQEKPEIVEKAEKVKSMKKEEAGSLKSPPNDEMESEFTHVLNELSKQKETIKKLLDDLRADNKKRKTHNIRTIFQRKD
MKEEIIIAGFGGQGVLSMGKILAYSGLMEGKEVTWMPAYGPEQRGGTANVTVIVSDDKISSPILSKYDTAIILNQPSLEKFESRVKPGGILIYDGYGIINPPTRKDIKVYRIDAMDAANEMNNAKAFNMIVLGGLLKLRPIVTLENVVKGLKKTLPERHHHLIPMNEEAIKKGMELIRE
MDCIRVTTIGYYHRDGDMRVTPGLLPKILNRECLKPLREDFFNLNIEVPDSGQGENNMVSFLDYISQTKCLEDAQPDFVTNKQILTALTGNKPFTIHAIHLKGTIFSFKSGEVRYQDTKNFGGAFEHFCTRTRNDEQLETDDTVRKAVFKAEIPRGNTQFYRVLYSGQIDAIDNEVDRKHYELKIMSQGLNEYFWKEKSCKFYWQSVFGNAPVLIIGSRSGQYSTQTTNNYPPYSLYKVEELKRDRIPSMAARCRKIPGRFGPAPPWKISEGEDNALYFLDLVKDNVINDGDCFSFTRTDENPDWDVKRDEESAAQFRDVVLQYLDR
MGSDKIHHHHHHMKLEFTCGEEITIKEVNKLKLELMTSGKGDVEKELERLKKNKNKVHDIKTEETIDLLDRCAKLWLDDNYSKKHIETLAQITNQSFELVNYEFKSMMQMLLRENIQNTIKRELGEVDILDSWHKTNYGYEHRQPRGIIFHNISGNAFVVIPMSISMGLLSKNCNLVKVSKDEPYFAYAFYKSLCELDETVKDRLSVLYFDSSKTEIYDTIVKNSDGVIHWGGEYSSRIIGEMCAKYQKHMIMHGAKISFEVVDKCDDLNKVSEEIAKDIICWEQKACLSPRVVFLNDKIDVDEFSHCLSASLRKITEVIPKAYLSEWNSVKTIQDRQYCTLKYGMKNERRFKVYSSFNADYTVILSDGMPEKEDINKCFYRFIFVCPYSSKSDVVNYVSENLKDYLQTMGYSGNDEEFIEKMTLLGVSIVTKPGKMSLHEPGTSHDGIHNLKEFTFLVSRQI
MGSDKIHHHHHHMSLEAPDLLRIRALPLFEAVNDGAFDRLMRGAFLQRFPRGSQLTTQGQPDNFLFVLLEGAIELEGSSSDRESTLALLWPSASLCLASIVLDGPSLMTARTTKGSLILMVPGDAFRQALEEDAGLGRAVAEELAGCFSGAVRSLKNNKLRTARERLVSYLLAQHQRQGGGAVVKLPCRKRVLASLLGMTPENLSRAFASLGPHGVEIDGSTVTLREPEGLAQLARPDPMIDNPIGESFSQAERERRRGGRTAIAAH
MGSDKIHHHHHHMIMATLKDIAKLAKVSQATVSRVLNKDETLSVSQKTKHRILMVADELGYQKHLKTTNSPQVRQKIAIVQWYSQQEELNDLYYYSIRIGIEKRAQELDYDIVRYFDNDISKVSADIVGLIAIGKFSTYQIAELEKLSDKLIFVDSDTLNAGYPCVMTDFDNAVVKVLDYFLDHGLTKIGMIAGEEKTTDGRELLIDQRFRTFRNYAYEQDIYNPNYIFIGDFSAQTGYHLMKKAIKELKENLPQAFFIANDSLAIGALRALQEANIPVPNRVSLISFNDTALTKQVFPALSSITVFTKEMGRTAVDILNRQILNPDIIPSMTRLTTQLTLRESSI
LSAGALKATASQQDKPESQYGLAGQLQAAAGQQGVTAQQQTRAEAAQQAQLPLQLTKELANEQVAEKVQMMMSKNLKNLDIRLDPPELGRMQIRMTMNNDLANVHFTVTNPQARDIIEQTLPRLREMLAQQGMQLADSSVQQQS
MGSDKIHHHHHHMKRIGIIAAWQPELNYLHEEYPSRKVRKIAAWEFHYHSINNLEIISVISGVGKTNCSSCTQLLISEFRPDEIYMTGICGSLSDSIKGGEIVIARQMLQHDVTNAGKGDDVWDLYTGRTSIIDGDNSIFSDFLNFAINTSEHKINNGMFISGDQRIREDVLRSSLSSTHNAIAVDQEIASFSYVSYVNKIPFLCVKSVSDQADNKTIEDQKRFKLLACENSCKLLIEFLLR
MDPSSIDLGSIPGGSEQQQHEDGAAAAAGSPKEVFRSQQSLGLITQRFMSLRQRNEVLNLNEVAKELNISKRRVYDVINVLEGLGYVEKVEKNNIRWIGDNNNSEEQNALEARVEMLRQQEKLLELMIRDAQAIIELHFEDPIERPYNYVSKEDIRKTAEPNTKSIIVKSELDTSSSFEIQVTDPSTSGSHDMIVRNKNGVKSHALLFTNDPPEYGDEEDEDDVKKLSSQKRFETSEALRVTLAEMLTDPTTISSSPKHIKLEEPEEIDTEDLETFAPPEFSENKWSQKIGGGLAILWAWLALMPRPQNGNFFSAKFFKFFPETVARKTFVLPPSTSASQSNAPYLPETPGRGLFFSPFKSLIDPCILPSFSDDLTSGYINITTPSRATGAGAGASGQEDEEPVSVMDFFSD
MRKMNLIVAMDAEGGIGKNGVLPWRIKKDMQYFASVTKNVSDQSKRNAVLMGRKCWESIPVTRRPLAGRLNIVLSRQLPAQKSDDYIVVNSLEAAMKLLSEPPFVDSIETIWNIGGAEIYDLALRENLVDEIHLTRIFKNFEADVHLKSLDFSKMEKVQNAEVSSENSEIFEENGLKFEFCKWKVVENH
MGSDKIHHHHHHMSLILELKNISKHYPGVKALETVSLRLFSGEVHALLGENGAGKSTLVKVMTGAQSKDGGEIIFLNEKQHFNTPIEAQKIGISTVYQEVNLVPNLTVAQNLFLGHEPKRFGLIHFQKMYADARTVLTQFKLDIDVSAPLSSYSIAVQQLIAIARGVAMSAKVLVLDEPTASLDADEVQVLFGILNQLKQKGVAIVFITHFLDQVYQISDRITVLRNGRFIGEYLTSELPQPQLIEAMLGRSLQQHLVEKTSAEQTTNGTSAVLLSLEGVSVKGSIQSMNLTVPKGQAVGLAGLLGSGRSEVCNAVFGLDLLDSGSIHLAGKKLHLSHPVDAINAGIALCPEDRKVDGIIGPLSIRENIILALQARVGWWRCLSKTRQQEIAQFFIDKLQIATPDADKPIEQLSGGNQQKVILARWLAIEPILLVLDEPTRGIDIGAHAEIIKLIRTLCDDGMSLLVASSELDELVAFSNKVVVLRDRYAVRELSGSELTSQHVMQAIAEG
MAQEFSGDVFVISVAAELAGMHAQTLRTYDRLGLVTPQRTRGGGRRYSRDDVELLRTVQHLSQVEGVNLAGIKSIIELKKENAQLRKELAAARAEADVLKNRGARPRGEIVHVPRSTAVVMWQPRRSSRQHD
MTFAWGRGSHGGAGMRIVQITDTHFSPTKAHFNGNWAPLAAWIEQSGADLVIHTGDLSVDGADRDDDIAFCMDLMREISAPMLLVPGNHDVGHLPGSLQPVNAGRLERWRRLVGPDYWMEDAGSWRLIGLDSLLMGFDDAEEEAQFDWLRTVLESRGGRRVALFAHKPLFVDAPGEGDTGYWSVRPAQRQRLYDLIATHDVALFASGHLHRAWQGKYENTSLVWGPSAAFVVGDMERDMPGERLLGAVIHQFSDTVTSEIVAIPGMTAYVLDDVVAEVYPHEAHKARKRVASLEHHHHHH
MKILLIGASGTLGSAVKERLEKKAEVITAGRHSGDVTVDITNIDSIKKMYEQVGKVDAIVSATGSATFSPLTELTPEKNAVTISSKLGGQINLVLLGIDSLNDKGSFTLTTGIMMEDPIVQGASAAMANGAVTAFAKSAAIEMPRGIRINTVSPNVLEESW

Soluble on expression in E. coli, soluble:
MEEGSAIDYQRVPPLSGTHYASTVSAGFYEATPLLGSLVHTLEHGAVIVYYDPDEISPEARQSLREFSSVHTGTWRSVVAVPNPNDDPRATYVVTAWQHELTIDSYDAETVHAFLSEYLGRGPENPVRLEHHHHHH
MSLDKMKAITFFDLDGTLLDGTSQITPEITAAVAALKDNQILPLIATGRTLCEIQPIMKASGIDSAIVMNGQFIHYEGKTIYSDEFTTEECVSLHEHVKQRGHELAFYNERRIFCTGHTGTVKQAYDYIHSAVPEIDPTGYENDAVNMMLVLSQHGDDDEYYYERFPELTFYRNGPFSIDIVRKGVSKGSGVKNLFNTLGLNGIPTYAFGDGINDLALFEACDYGIAMGNAREELKEKATFISTKNTENGIVNGLKKFDLLEGHHHHHH
MGHHHHHHSHMQDGFLTVSIIDATNNRPIQNAVVNIYSMSNGSQSSSTLYQNLRSNESGQVTGLVLPAPDVDYSLQPSDVRPYSQYIVEAIADGYETVVIEGTQLLATIEARQGVPMSPRTRSKRSFSRQSELIFDIGEHTLYGTYPPKIPESNLKPLPPPTGFVVLDNPVVPEFIVVHDGLPEDSSAPNYWIPFKEYIKNIASSEIYSTWPEQTIYANVIAIISFTLNRVFTEWYRNKGYNFTITSTTAYDHKFINNRNLFEPINVVVDAIFNTFIKRPPTSRQPLLAQYCDGQKSQCPDQMTQWGSKDLGDQGYDYESILRYFYGDEIVFERAPIVSGVPVSFPGTTLQVGSSGQYVRTIQNQLNAISNSYPAVPKVIEDGIYGTDTENAVKIFQGIFGLPQSGVVDFKTWYEISRVYVATTRIASLNPLI
ALESARAGYWEWNVENGTILIDRQWAVISGYNSADFDMLTMEQWRELCHPADLGVVTKSIEELLDGSMERLELELRVRHKNGEWIRVLDCGKVTGRSKNGKPSCLTGSRQALASLHDK
SLGTLPPELQNTCVARGKLPLLLDLDNTLLHAQAASATGCDVRLQDWIDPYGEPELYRFELPCNRKTYYMKLRPHLRTFLKKLEPFYEMSVYTNATQEYADIVIAILDGNRQLFQDRIVARDSGFRGEASENKAVRRLYEGMDKRCIVAFDDRQNIWTDLPLTHVVKAQHYDFFDSHKTELNAYYPPLSNGIEGMTAPDVLGNRQNED
MSLAAESTYKKLVMLVDDNETDNFIHRRVLEMGNFSKNIIVKNSGKSALEYLEANQSNSELIPEVIFLDINMPIVDGFVFLFEFESFPESIKERCKIIVLSSSDNKKDIDRIVDNDYVVHFITKPLSEDSIAELKKMVEGHHHHHH
DRTIPDYTSFNTVDEWLDAIKMSQYKESFASAGFTTFDIVSQMTVEDILRVGVTLAGHQKKILNSIQVMRAQMNQ
MSLSHMGIFKFANGTIRVKDLEKSIEFYRDVIGMHELAREKGVVYFGCGADETFDIAIKEGGTGVEQFALQVADEEDIQYYEKKLTNLGISTQRMSNPEPGKKVALRFAAPSGHQLELALMEDRPHYLHPVAGHKGSRGIGILDADHITLHTKDVKGLAEFLQEALDFRVADVFEPAPGVWGAAWTHASDYHHDVALIGTSEDTTLHHFAFLVSGFEDMKRACDLLAQAGYKIETGPGRHGVGGNLFTYFLDPSGNRIELSAEMPRADRSVPHKVWPDFPPAFSTWGALPPESFAKGEGHHHHHH
MSQPLNVAVVGATGSVGEALVGLLDERDFPLHRLHLLASAESAGQRMGFAESSLRVGDVDSFDFSSVGLAFFAAAAEVSRAHAERARAAGCSVIDLSGALEPSVAPPVMVSVNAERLASQAAPFLLSSPCAVAAELCEVLAPLLATLDCRQLNLTACLSVSSLGREGVKELARQTAELLNARPLEPRLFDRQIAFNLLAQVGAVDAEGHSAIERRIFAEVQALLGERIGPLNVTCIQAPVFFGDSLSVTLQCAEPVDLAAVTRVLDATKGIEWVGEGDYPTVVGDALGQDETYVGRVRAGQADPCQVNLWIVSDNVRKGAALNAVLLGELLIKHYL
